Values quoted from earlier work, collected in PMC3889014.

Molecular target: Cys145 (UniProt position 145, PILIPCHRVVC)

Substance: O6-alkylguanine DNA-alkyltransferase (AGT; MGMT) (Homo sapiens (inferred; not stated in the sentence with the pKa))
- pKa: 4–5
